We go through 19 molecules from patent US20210324028A1 (Pfizer, published 2021).

Test [1] addresses T1, human IL-15Rα (human, UniProt Q13261 31-205, limits assumed).
T1 construct: also called hIL-15Rα; IL-15 receptor alpha
The test can be described thus: SPR, steady state. Background: SPR reads the build-up and loss of mass on a sensor chip optically.

Test [2] concerns the target T2, human IL-2Rβ (human, UniProt P14784 27-240, limits assumed).
T2 construct: also called hIL-2Rβ; IL-2 receptor beta
T2 sequence (looked up): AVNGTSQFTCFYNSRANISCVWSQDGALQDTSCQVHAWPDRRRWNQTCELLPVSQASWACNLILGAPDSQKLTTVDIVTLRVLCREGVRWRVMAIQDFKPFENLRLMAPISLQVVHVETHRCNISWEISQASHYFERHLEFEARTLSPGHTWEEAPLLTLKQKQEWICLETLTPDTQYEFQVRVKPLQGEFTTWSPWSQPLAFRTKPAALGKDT
The test can be described thus: SPR, steady state.

T1 sequence (Q13261 31-205 limits assumed): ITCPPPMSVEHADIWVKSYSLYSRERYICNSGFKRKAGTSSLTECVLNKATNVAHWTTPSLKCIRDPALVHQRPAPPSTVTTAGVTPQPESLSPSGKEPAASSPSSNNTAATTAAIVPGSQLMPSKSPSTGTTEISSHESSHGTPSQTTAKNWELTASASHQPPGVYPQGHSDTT

B1: hIL-15 V49R/N1H (ligand)
chain: HWVNVISDLKKIEDLIQSMHIDATLYTESDVHPSCKVTAMKCFLLELQRISLESGDASIHDTVENLIILANNSLSSNGNVTESGCKECEELEEKNIKEFLQSFVHIVQMFINTGGGGSGHHHHHHHHGGGLNDIFEAQKIEWHE
Turning to B1, the Kd in test [1] came to 151 nM; in test [2] it was 235 nM.

B2: hIL-15 V49R/N1Q (ligand)
chain: QWVNVISDLKKIEDLIQSMHIDATLYTESDVHPSCKVTAMKCFLLELQRISLESGDASIHDTVENLIILANNSLSSNGNVTESGCKECEELEEKNIKEFLQSFVHIVQMFINTGGGGSGHHHHHHHHGGGLNDIFEAQKIEWHE
As for B2, the Kd was 115 nM in test [1] and above 500 nM in test [2].

B3: hIL-15 V49R/N65D (ligand)
chain: NWVNVISDLKKIEDLIQSMHIDATLYTESDVHPSCKVTAMKCFLLELQRISLESGDASIHDTVEDLIILANNSLSSNGNVTESGCKECEELEEKNIKEFLQSFVHIVQMFINTGGGGSGHHHHHHHHGGGLNDIFEAQKIEWHE
In the case of B3, the Kd was 121 nM in test [1] and above 500 nM in test [2].

B4: hIL-15 V49R/N4Q (ligand)
chain: NWVQVISDLKKIEDLIQSMHIDATLYTESDVHPSCKVTAMKCFLLELQRISLESGDASIHDTVENLIILANNSLSSNGNVTESGCKECEELEEKNIKEFLQSFVHIVQMFINTGGGGSGHHHHHHHHGGGLNDIFEAQKIEWHE
In the case of B4, the figures for the Kd in test [1] and in test [2] were 59.5 nM and above 500 nM, respectively.

B5: hIL-15 V49R/N4M (ligand)
chain: NWVMVISDLKKIEDLIQSMHIDATLYTESDVHPSCKVTAMKCFLLELQRISLESGDASIHDTVENLIILANNSLSSNGNVTESGCKECEELEEKNIKEFLQSFVHIVQMFINTGGGGSGHHHHHHHHGGGLNDIFEAQKIEWHE
B5: the Kd in test [1] was 88.1 nM; in test [2], 233 nM.

B6: hIL-15 V49R/N4H (ligand)
chain: NWVHVISDLKKIEDLIQSMHIDATLYTESDVHPSCKVTAMKCFLLELQRISLESGDASIHDTVENLIILANNSLSSNGNVTESGCKECEELEEKNIKEFLQSFVHIVQMFINTGGGGSGHHHHHHHHGGGLNDIFEAQKIEWHE
As for B6, the Kd was 81.5 nM in test [1] and 96.4 nM in test [2].

B7: hIL-15 V49R/N4W (ligand)
chain: NWVWVISDLKKIEDLIQSMHIDATLYTESDVHPSCKVTAMKCFLLELQRISLESGDASIHDTVENLIILANNSLSSNGNVTESGCKECEELEEKNIKEFLQSFVHIVQMFINTGGGGSGHHHHHHHHGGGLNDIFEAQKIEWHE
As to B7, the values for the Kd in test [1] and in test [2] were 143 nM and 438 nM, respectively.

B8: hIL-15 V49R/N1S (ligand)
chain: SWVNVISDLKKIEDLIQSMHIDATLYTESDVHPSCKVTAMKCFLLELQRISLESGDASIHDTVENLIILANNSLSSNGNVTESGCKECEELEEKNIKEFLQSFVHIVQMFINTGGGGSGHHHHHHHHGGGLNDIFEAQKIEWHE
For the molecule B8, the results for the Kd in test [1] and in test [2] were 140 nM and 194 nM, respectively.

B9: hIL-15 V49R/N65K (ligand)
chain: NWVNVISDLKKIEDLIQSMHIDATLYTESDVHPSCKVTAMKCFLLELQRISLESGDASIHDTVEKLIILANNSLSSNGNVTESGCKECEELEEKNIKEFLQSFVHIVQMFINTGGGGSGHHHHHHHHGGGLNDIFEAQKIEWHE
On to B9, for which the values for the Kd in test [1] and in test [2] were 201 nM and 193 nM, respectively.

B10: hIL-15 V49R/N4A (ligand)
chain: NWVAVISDLKKIEDLIQSMHIDATLYTESDVHPSCKVTAMKCFLLELQRISLESGDASIHDTVENLIILANNSLSSNGNVTESGCKECEELEEKNIKEFLQSFVHIVQMFINTGGGGSGHHHHHHHHGGGLNDIFEAQKIEWHE
Take B10: the Kd is 98 nM in test [1] and above 500 nM in test [2].

B11: hIL-15 V49R/N4G (ligand)
chain: NWVGVISDLKKIEDLIQSMHIDATLYTESDVHPSCKVTAMKCFLLELQRISLESGDASIHDTVENLIILANNSLSSNGNVTESGCKECEELEEKNIKEFLQSFVHIVQMFINTGGGGSGHHHHHHHHGGGLNDIFEAQKIEWHE
In the case of B11, the Kd in test [1] was 105 nM; in test [2] it was above 500 nM.

B12: hIL-15 V49R/N4E (ligand)
chain: NWVEVISDLKKIEDLIQSMHIDATLYTESDVHPSCKVTAMKCFLLELQRISLESGDASIHDTVENLIILANNSLSSNGNVTESGCKECEELEEKNIKEFLQSFVHIVQMFINTGGGGSGHHHHHHHHGGGLNDIFEAQKIEWHE
Take B12: the Kd in test [1] is 79.8 nM; in test [2], 311 nM.

B13: hIL-15 V49R/N72D (ligand)
chain: NWVNVISDLKKIEDLIQSMHIDATLYTESDVHPSCKVTAMKCFLLELQRISLESGDASIHDTVENLIILANDSLSSNGNVTESGCKECEELEEKNIKEFLQSFVHIVQMFINTGGGGSGHHHHHHHHGGGLNDIFEAQKIEWHE
In the case of B13, the Kd in test [1] was determined as 105 nM; in test [2], 101 nM.

B14: hIL-15 V49R/N72K (ligand)
chain: NWVNVISDLKKIEDLIQSMHIDATLYTESDVHPSCKVTAMKCFLLELQRISLESGDASIHDTVENLIILANKSLSSNGNVTESGCKECEELEEKNIKEFLQSFVHIVQMFINTGGGGSGHHHHHHHHGGGLNDIFEAQKIEWHE
Take B14: the equilibrium dissociation constant (Kd) is 101 nM in test [1] and above 500 nM in test [2].

B15: hIL-15 V49R/N1K (ligand)
chain: KWVNVISDLKKIEDLIQSMHIDATLYTESDVHPSCKVTAMKCFLLELQRISLESGDASIHDTVENLIILANNSLSSNGNVTESGCKECEELEEKNIKEFLQSFVHIVQMFINTGGGGSGHHHHHHHHGGGLNDIFEAQKIEWHE
Regarding B15, the Kd in test [1] was 264 nM; in test [2] it was above 500 nM.

B16: hIL-15 V49R/N4D (ligand)
chain: NWVDVISDLKKIEDLIQSMHIDATLYTESDVHPSCKVTAMKCFLLELQRISLESGDASIHDTVENLIILANNSLSSNGNVTESGCKECEELEEKNIKEFLQSFVHIVQMFINTGGGGSGHHHHHHHHGGGLNDIFEAQKIEWHE
On to B16, for which the results for the Kd in test [1] and in test [2] were 103 nM and 365 nM, respectively.

B17: hIL-15 V49R/N1T (ligand)
chain: TWVNVISDLKKIEDLIQSMHIDATLYTESDVHPSCKVTAMKCFLLELQRISLESGDASIHDTVENLIILANNSLSSNGNVTESGCKECEELEEKNIKEFLQSFVHIVQMFINTGGGGSGHHHHHHHHGGGLNDIFEAQKIEWHE
With B17, the Kd in test [1] was found to be 104 nM; in test [2], 249 nM.

B18: hIL-15 V49R/N72A (ligand)
chain: NWVNVISDLKKIEDLIQSMHIDATLYTESDVHPSCKVTAMKCFLLELQRISLESGDASIHDTVENLIILANASLSSNGNVTESGCKECEELEEKNIKEFLQSFVHIVQMFINTGGGGSGHHHHHHHHGGGLNDIFEAQKIEWHE
With B18, the Kd is 117 nM in test [1] and 148 nM in test [2].

B19: hIL-15 V49R/N4L (ligand)
chain: NWVLVISDLKKIEDLIQSMHIDATLYTESDVHPSCKVTAMKCFLLELQRISLESGDASIHDTVENLIILANNSLSSNGNVTESGCKECEELEEKNIKEFLQSFVHIVQMFINTGGGGSGHHHHHHHHGGGLNDIFEAQKIEWHE
Consider B19, for which the Kd stood at 98.6 nM in test [1] and 429 nM in test [2].

Broadly, the Kd is the concentration at which binding is half-saturated.
